{"source": "patent US8465735B2", "about": "“Variant form of urate oxidase and use thereof” (Savient Pharmaceuticals, Inc., priority 2005, dated 2013)", "system": "O=c1[nH]c(=O)c2[nH]c(=O)[nH]c2[nH]1", "assay": "purified protein, by the assay type", "conditions": "other: sodium borate buffer, pH 9.2, 25.0 °C", "procedure": "Activity of uricase was measured by a UV method. […] Uricase potency is expressed in activity units per mg protein (U/mg).\nThe absorbance change with time (ΔA292 per minute) was derived from the linear portion of the curve.\nThe specific activity (potency) of uricase was calculated by dividing the activity in U/ml with protein concentration in mg/ml.", "data": [{"substance": "A. flavus (Aspergillus flavus) uricase, native (Merck) (Aspergillus flavus)", "values": [{"measurement": "Km", "value": 23.54, "unit": "µM"}, {"measurement": "kcat", "value": 11.2, "unit": "s⁻¹"}]}]}
